Target: the molecule itself
Experiment: SEC-SAXS

B1: gated spinach aquaporin SoPIP2;1 (natural protein)
chain: MSKEVSEEAQAHQHGKDYVDPPPAPFFDLGELKLWSFWRAAIAEFIATLLFLYITVATVIGHSKETVVCGSVGLLGIAWAFGGMIFVLVYCTAGISGGHINPAVTFGLFLARKVSLLRALVYMIAQCLGAICGVGLVKAFMKGPYNQFGGGANSVALGYNKGTALGAEIIGTFVLVYTVFSATDPKRSARDSHVPILAPLPIGFAVFMVHLATIPITGTGINPARSFGAAVIFNSNKVWDDQWIFWVGPFIGAAVAAAYHQYVLRAAAIKALGSFRSNPTN
Does B1 bind?
Result: binds
